Series [1] has as its system HeLa Kyoto. Nature of the series: solubility in G1/S (NP-40 vs SDS abundance) (log2 ratio); higher = more soluble. The conditions noted are these: cell cycle stage: G1/S.
Series [2] deals with HeLa Kyoto. The series is described as follows: solubility change mitosis vs G1/S (difference of NP-40 vs SDS log2 ratios) (log2 ratio difference); higher = more soluble in mitosis.
Series [3] concerns HeLa Kyoto. The series is described as follows: melting temperature (median over replicates), in situ; higher = more thermally stable.
The test system of series [4] is HeLa Kyoto. Nature of the series: thermal stability score vs G1/S (z-score of summed log2 fold changes over temperatures); higher = more thermally stable than in G1/S.
Setting [5] is: cell cycle stage: early G1 (4.5 h after nocodazole release).
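Wherever melting temperature (median over replicates), in situ is given: HeLa Kyoto cells synchronized by double thymidine or nocodazole block, proteins quantified by TMT10plex mass spectrometry, three independent biological replicates.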
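Wherever solubility change mitosis vs G1/S (difference of NP-40 vs SDS log2 ratios) is given: synchronized HeLa Kyoto cells (double thymidine block for G1/S, nocodazole release for mitosis), protein amounts in NP-40 versus SDS lysates quantified by mass spectrometry, three biological replicates.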
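Wherever solubility in G1/S (NP-40 vs SDS abundance) is given: HeLa Kyoto cells arrested at G1/S by double thymidine block, proteins quantified by TMT10plex mass spectrometry in mild NP-40 versus SDS extracts, three biological replicates.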
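Wherever thermal stability score vs G1/S (z-score of summed log2 fold changes over temperatures) is given: synchronized HeLa Kyoto cells, proteins quantified by TMT10plex mass spectrometry, three biological replicates, mitosis taken 0.5 h after nocodazole release, G1/S directly after double thymidine block.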

Sequence of ZNF207 (chain, as listed by the source): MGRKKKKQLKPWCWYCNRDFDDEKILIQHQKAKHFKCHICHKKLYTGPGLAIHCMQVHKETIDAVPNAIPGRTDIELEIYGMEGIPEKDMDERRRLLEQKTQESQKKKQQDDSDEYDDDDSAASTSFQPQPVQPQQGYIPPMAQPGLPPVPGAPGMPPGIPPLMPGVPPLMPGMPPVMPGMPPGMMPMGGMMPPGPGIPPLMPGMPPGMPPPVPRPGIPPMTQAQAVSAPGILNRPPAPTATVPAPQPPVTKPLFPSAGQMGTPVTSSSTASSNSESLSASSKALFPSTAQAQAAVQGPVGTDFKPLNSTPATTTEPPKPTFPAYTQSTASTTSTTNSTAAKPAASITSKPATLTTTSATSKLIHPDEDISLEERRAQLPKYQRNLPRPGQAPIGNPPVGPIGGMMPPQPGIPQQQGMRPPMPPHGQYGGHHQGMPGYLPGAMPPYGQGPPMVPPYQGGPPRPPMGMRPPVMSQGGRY

For “MGILEKISEIEKEIARTQKNKATEYHLGLLKAKLAKYRAQLLEPSKSASSKGEGFDVMKSGDARVALIGFPSVGKSTFLSLMTSTASEAASYEFTTLTCIPGVIEYKGANIQLLDLPGIIEGAAQGKGRGRQVIAVARTADVIIMMLDATKGEVQRSLLEKELESVGIRLNKHKPNIYFKPKKGGGISFNSTVTLTQCSEKLVQLILHEYKIFNAEVLFREDCSPDEFIDVIVGNRVYMPCLYVYNKIDQISMEEVDRLARKPNSVVISCGMKLNLDYLLEMLWEYLALTCIYTKKRGQRPDFTDAIILRKGASVEHVCHRIHRSLASQFKYALVWGTSTKYSPQRVGLTHTMEHEDVIQIVKK [DRG2]”, in the series with HeLa Kyoto [1], the “solubility in G1/S (log2)” value came to 0.0131. In addition, in the series with HeLa Kyoto [2], the “solubility change mitosis (log2)” value is -0.113. Moreover, the melting temperature was 51.9 °C with HeLa Kyoto [3] (cell cycle stage: G1/S) and 51.6 °C in the series with HeLa Kyoto [3] (cell cycle stage: mitosis). Besides, the results for the thermal stability score in the series with HeLa Kyoto [4] (setting [5]) and in the series on HeLa Kyoto [4] (cell cycle stage: mitosis) were -0.377 and -0.907, respectively.
With ZNF207, in the series on HeLa Kyoto [1], the “solubility in G1/S (log2)” value was 0.0156. The “solubility change mitosis (log2)” value with HeLa Kyoto [2] worked out at 0.36. Further, the results for the melting temperature with HeLa Kyoto [3] (cell cycle stage: G1/S) and in the series on HeLa Kyoto [3] (cell cycle stage: mitosis) were 55.8 °C and 55.4 °C, respectively. The values for the thermal stability score in the series on HeLa Kyoto [4] (setting [5]) and with HeLa Kyoto [4] (cell cycle stage: mitosis) were -5.35 and -6.05, respectively.
“MPFPVTTQGSQQTQPPQKHYGITSPISLAAPKETDCVLTQKLIETLKPFGVFEEEEELQRRILILGKLNNLVKEWIREISESKNLPQSVIENVGGKIFTFGSYRLGVHTKGADIDALCVAPRHVDRSDFFTSFYDKLKLQEEVKDLRAVEEAFVPVIKLCFDGIEIDILFARLALQTIPEDLDLRDDSLLKNLDIRCIRSLNGCRVTDEILHLVPNIDNFRLTLRAIKLWAKRHNIYSNILGFLGGVSWAMLVARTCQLYPNAIASTLVHKFFLVFSKWEWPNPVLLKQPEECNLNLPVWDPRVNPSDRYHLMPIITPAYPQQNSTYNVSVSTRMVMVEEFKQGLAITDEILLSKAEWSKLFEAPNFFQKYKHYIVLLASAPTEKQRLEWVGLVESKIRILVGSLEKNEFITLAHVNPQSFPAPKENPDKEEFRTMWVIGLVFKKTENSENLSVDLTYDIQSFTDTVYRQAINSKMFEVDMKIAAMHVKRKQLHQLLPNHVLQKKKKHSTEGVKLTALNDSSLDLSMDSDNSMSVPSPTSATKTSPLNSSGSSQGRNSPAPAVTAASVTNIQATEVSVPQVNSSESSGGTSSESIPQTATQPAISPPPKPTVSRVVSSTRLVNPPPRSSGNAATSGNAATKIPTPIVGVKRTSSPHKEESPKKTKTEEDETSEDANCLALSGHDKTEAKEQLDTETSTTQSETIQTAASLLASQKTSSTDLSDIPALPANPIPVIKNSIKLRLNR [PAPOLA]”: the “solubility in G1/S (log2)” value in the series on HeLa Kyoto [1] was 0.109. In addition, the “solubility change mitosis (log2)” value with HeLa Kyoto [2] was -0.238. The melting temperature in the series on HeLa Kyoto [3] (cell cycle stage: G1/S) was 51.6 °C; in the series with HeLa Kyoto [3] (cell cycle stage: mitosis), 52 °C. In addition, the thermal stability score in the series on HeLa Kyoto [4] (setting [5]) stood at 1.44; with HeLa Kyoto [4] (cell cycle stage: mitosis), 1.67.
With “MGVPAFFRWLSRKYPSIIVNCVEEKPKECNGVKIPVDASKPNPNDVEFDNLYLDMNGIIHPCTHPEDKPAPKNEDEMMVAIFEYIDRLFSIVRPRRLLYMAIDGVAPRAKMNQQRSRRFRASKEGMEAAVEKQRVREEILAKGGFLPPEEIKERFDSNCITPGTEFMDNLAKCLRYYIADRLNNDPGWKNLTVILSDASAPGEGEHKIMDYIRRQRAQPNHDPNTHHCLCGADADLIMLGLATHEPNFTIIREEFKPNKPKPCGLCNQFGHEVKDCEGLPREKKGKHDELADSLPCAEGEFIFLRLNVLREYLERELTMASLPFTFDVERSIDDWVFMCFFVGNDFLPHLPSLEIRENAIDRLVNIYKNVVHKTGGYLTESGYVNLQRVQMIMLAVGEVEDSIFKKRKDDEDSFRRRQKEKRKRMKRDQPAFTPSGILTPHALGSRNSPGSQVASNPRQAAYEMRMQNNSSPSISPNTSFTSDGSPSPLGGIKRKAEDSDSEPEPEDNVRLWEAGWKQRYYKNKFDVDAADEKFRRKVVQSYVEGLCWVLRYYYQGCASWKWYYPFHYAPFASDFEGIADMPSDFEKGTKPFKPLEQLMGVFPAASGNFLPPSWRKLMSDPDSSIIDFYPEDFAIDLNGKKYAWQGVALLPFVDERRLRAALEEVYPDLTPEETRRNSLGGDVLFVGKHHPLHDFILELYQTGSTEPVEVPPELCHGIQGKFSLDEEAILPDQIVCSPVPMLRDLTQNTVVSINFKDPQFAEDYIFKAVMLPGARKPAAVLKPSDWEKSSNGRQWKPQLGFNRDRRPVHLDQAAFRTLGHVMPRGSGTGIYSNAAPPPVTYQGNLYRPLLRGQAQIPKLMSNMRPQDSWRGPPPLFQQQRFDRGVGAEPLLPWNRMLQTQNAAFQPNQYQMLAGPGGYPPRRDDRGGRQGYPREGRKYPLPPPSGRYNWN [XRN2]”, the “solubility in G1/S (log2)” value in the series with HeLa Kyoto [1] is -0.126. In addition, the “solubility change mitosis (log2)” value in the series on HeLa Kyoto [2] turned out to be 0.128. Also, the melting temperature came to 50.2 °C in the series with HeLa Kyoto [3] (cell cycle stage: G1/S) and 50.4 °C in the series on HeLa Kyoto [3] (cell cycle stage: mitosis). The thermal stability score in the series with HeLa Kyoto [4] (setting [5]) was 1.15; in the series on HeLa Kyoto [4] (cell cycle stage: mitosis), 0.632.
Take “MALQTLQSSWVTFRKILSHFPEELSLAFVYGSGVYRQAGPSSDQKNAMLDFVFTVDDPVAWHSKNLKKNWSHYSFLKVLGPKIITSIQNNYGAGVYYNSLIMCNGRLIKYGVISTNVLIEDLLNWNNLYIAGRLQKPVKIISVNEDVTLRSALDRNLKSAVTAAFLMLPESFSEEDLFIEIAGLSYSGDFRMVVGEDKTKVLNIVKPNIAHFRELYGSILQENPQVVYKSQQGWLEIDKSPEGQFTQLMTLPKTLQQQINHIMDPPGKNRDVEETLFQVAHDPDCGDVVRLGLSAIVRPSSIRQSTKGIFTAGKSFGNPCVTYLLTEWLPHSWLQCKALYLLGACEMLSFDGHKLGYCSKVQTGITAAEPGGRTMSDHWQCCWKLYCPSEFSETLPVCRVFPSYCFIYQSYRCIGLQKQQHLCSPSSSPSLRQLLPSVLVGYFCCYCHFSKW [TAMM41]”: in the series on HeLa Kyoto [1], the “solubility in G1/S (log2)” value came out at 0.0094. The “solubility change mitosis (log2)” value in the series with HeLa Kyoto [2] is -0.163. In addition, the melting temperature in the series on HeLa Kyoto [3] (cell cycle stage: G1/S) amounted to 52.6 °C; in the series on HeLa Kyoto [3] (cell cycle stage: mitosis), 52.8 °C. The thermal stability score in the series on HeLa Kyoto [4] (setting [5]) is -1.37; in the series with HeLa Kyoto [4] (cell cycle stage: mitosis) it was -1.38.
With “MAAPALRLCHIAFHVPAGQPLARNLQRLFGFQPLASREVDGWRQLALRSGDAVFLVNEGAGSGEPLYGLDPRHAVPSATNLCFDVADAGAATRELAALGCSVPVPPVRVRDAQGAATYAVVSSPAGILSLTLLERAGYRGPFLPGFRPVSSAPGPGWVSRVDHLTLACTPGSSPTLLRWFHDCLGFCHLPLSPGEDPELGLEMTAGFGLGGLRLTALQAQPGSIVPTLVLAESLPGATTRQDQVEQFLARHKGPGLQHVGLYTPNIVEATEGVATAGGQFLAPPGAYYQQPGKERQIRAAGHEPHLLARQGILLDGDKGKFLLQVFTKSLFTEDTFFLELIQRQGATGFGQGNIRALWQSVQEQSARSQEA [HPDL]”, the “solubility in G1/S (log2)” value in the series on HeLa Kyoto [1] worked out at 0.23. Further, in the series with HeLa Kyoto [2], the “solubility change mitosis (log2)” value was -0.0348. Further, the melting temperature in the series with HeLa Kyoto [3] (cell cycle stage: G1/S) was 53.9 °C; in the series with HeLa Kyoto [3] (cell cycle stage: mitosis), 52.8 °C. Also, the figures for the thermal stability score in the series on HeLa Kyoto [4] (setting [5]) and in the series on HeLa Kyoto [4] (cell cycle stage: mitosis) were 1.41 and 0.476, respectively.
For FRG1, the “solubility in G1/S (log2)” value in the series on HeLa Kyoto [1] was -0.326. The “solubility change mitosis (log2)” value in the series on HeLa Kyoto [2] worked out at 0.0777. Moreover, the melting temperature was determined as 51.2 °C with HeLa Kyoto [3] (cell cycle stage: G1/S) and 51.3 °C with HeLa Kyoto [3] (cell cycle stage: mitosis). Moreover, the results for the thermal stability score in the series on HeLa Kyoto [4] (setting [5]) and in the series on HeLa Kyoto [4] (cell cycle stage: mitosis) were 0.899 and 0.827, respectively.

The values above are taken from the supplement of paper PMC5998384.
